This data set concerns the molecule itself. In words: zymogram (SDS-PAGE gel with embedded fish sperm DNA, renatured); self-association, dimer band. On the procedure: In addition, the nuclease activity was confirmed by zymography. […] Then, the gel was washed three times for 5 min in mQ and incubated for 48 h in zymogram renaturation buffer (150 mM NaH₂PO₄ pH 7, 10 mM MgCl₂ and 0.1% Triton X-100), which allowed the proteins to refold to their native state. Finally, the gel was stained for 20 min in 0.5 μg/ml ethidium bromide and destained for 20 min in the zymogram renaturation buffer. After staining with ethidium bromide, the enzymes with nuclease activity were visible as non-fluorescent bands using an UV transilluminator. The impact of boiling on the renaturing capacity of Gp5 was tested by loading both preboiled (10 min, 95° C.) and non-preboiled samples. Clear bands were observed around 8-9 kDa, indicating the nuclease activity of Gp5 (MW=8.5 KDa) (for details see FIG. 4). […] Despite the small fraction of Gp5 that is present as a dimer on the zymogram, this dimer:monomer ratio is not necessarily present in vivo. After all, SDS is an anionic surfactant, negatively charging proteins to allow a separation based on the molecular weight in SDS-PAGE. This step generally involves also the disintegration of dimers into monomers. The removal of SDS in the renaturation step, might allow Gp5 to reassociate into dimers.
Clear bands were observed around 8-9 kDa in all samples, indicating the presence of Gp5. […] The protein concentrations are shown on the top.

One protein from patent US20200199554A1 (KATHOLIEKE UNIVERSITEIT LEUVEN, published 2020) can be followed below.

B1: LUZ19_Gp5 (untagged, purified) (enzyme)
chain: MSSRDPYRIGHRVGLVNYSDRYLGADAAGTKGTIEAITRPSRCMTIYHVRCERTLRLIEAEARNVRFIRQRAER
notes: A few linker residues may remain at the N-terminus; also called Phage LUZ19 gp5; miniDNase
On to B1, for which the binding result is “binds”.
